Experimental data: patent US20030153012A1

Key:
[1] = target: hen egg white lysozyme (hen) (UniProt P00698); test: fluorescence at 535 nm, excitation at 480 nm, lysozyme 10 nM to 2 uM in 50 mM Tris-HCl, 150 mM NaCl, pH 7.5
[2] = target: hen egg white lysozyme (hen) (UniProt P00698); test: fluorescence emission after addition of lysozyme, excitation at 469 nm, several preparations
[3] = target: hen egg white lysozyme (hen) (UniProt P00698); test: fluorescence emission, excitation at 469 nm, lysozyme at 100 nM and 1 uM, three preparations

Chain of UniProt P00698 (P00698 19-147 limits assumed): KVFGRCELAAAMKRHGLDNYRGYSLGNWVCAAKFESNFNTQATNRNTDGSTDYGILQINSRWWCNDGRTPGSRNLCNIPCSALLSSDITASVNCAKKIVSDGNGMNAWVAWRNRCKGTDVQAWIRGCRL

increase of fluorescence intensity at saturation [1]: 91%
fluorescence intensity at saturation relative to the free biosensor [2]: 1.26 times
maximum enhancement of fluorescence [3]: 27%
B1: scFv-His6(VL-S93ANBD) conjugate (scFv)
scFv: EVKLQESGPGLVAPSQSLSITCTVSGFSLTGYGVNWVRQPPGKGLEWLGMIWGDGNTDYNSALKSRLSISKDNSKSQVFLKMNSLHTDDTARYYCARERDYRLDYWGQGTTVTVSSGGGGSGGGGSGGGGSDIELTQSPASLSASVGETVTITCRASGNIHNYLAWYQQKQGKSPQLLVYYTTTLADGVPSRFSGSGSGTQYSLKINSLQPEDFGSYYCQHFWCTPRTFGGGTKLEIKRPLEHHHHHH
modifications: chain 1 pos 224 (VL Cys93): Cys whose S-gamma is coupled to the fluorophore IANBD (ANBD adduct), written C
